According to patent US20130184211A1 (NEW YORK UNIVERSITY, published 2013):

What was measured:
[1] = molecular target: T1, complex of V5-tagged FGFR3c and FLAG-tagged membrane-spanning murine Klotho isolated from transfected … (murine, UniProt O35082 35-1014); experiment: co-immunoprecipitation competition; competitor FGF23^28-251 (1 nM)
T1 construct: Isolated from cell lysate on anti-V5 agarose beads; also called FGFR3c-Klotho complex; binary FGFR-Klotho complex; not shown: FGFR3c, V5-tagged, expressed from a vector in HEK293-Klotho cells
T1 sequence (O35082 35-1014, one chain of several): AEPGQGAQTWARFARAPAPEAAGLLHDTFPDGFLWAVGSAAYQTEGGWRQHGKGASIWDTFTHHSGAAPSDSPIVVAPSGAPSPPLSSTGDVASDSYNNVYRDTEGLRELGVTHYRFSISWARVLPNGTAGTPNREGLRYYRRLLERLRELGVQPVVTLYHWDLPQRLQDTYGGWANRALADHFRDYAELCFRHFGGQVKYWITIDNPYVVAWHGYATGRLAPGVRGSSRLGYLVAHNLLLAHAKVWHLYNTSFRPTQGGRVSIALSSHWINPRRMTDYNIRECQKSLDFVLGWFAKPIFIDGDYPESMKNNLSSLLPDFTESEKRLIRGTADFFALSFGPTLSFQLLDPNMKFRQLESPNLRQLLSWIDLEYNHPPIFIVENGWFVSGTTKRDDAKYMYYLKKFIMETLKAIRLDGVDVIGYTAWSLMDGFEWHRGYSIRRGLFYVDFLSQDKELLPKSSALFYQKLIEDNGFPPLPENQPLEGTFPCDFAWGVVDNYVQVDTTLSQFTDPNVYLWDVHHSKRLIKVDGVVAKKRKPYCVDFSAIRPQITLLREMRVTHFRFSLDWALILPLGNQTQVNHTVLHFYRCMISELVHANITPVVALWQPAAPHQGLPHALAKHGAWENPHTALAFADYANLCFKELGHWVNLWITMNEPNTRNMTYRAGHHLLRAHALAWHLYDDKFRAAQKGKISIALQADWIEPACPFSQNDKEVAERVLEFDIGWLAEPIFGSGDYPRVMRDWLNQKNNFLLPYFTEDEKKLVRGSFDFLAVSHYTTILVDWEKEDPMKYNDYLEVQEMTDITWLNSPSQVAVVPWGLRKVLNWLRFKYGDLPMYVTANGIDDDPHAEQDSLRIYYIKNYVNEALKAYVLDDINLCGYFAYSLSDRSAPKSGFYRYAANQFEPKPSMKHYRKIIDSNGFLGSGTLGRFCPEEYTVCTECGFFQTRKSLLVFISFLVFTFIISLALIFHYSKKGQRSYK
Excerpt: (§1) Co-immunoprecipitation may also be used to determine that an agent specifically binds the binary FGFR-Klotho complex. One aspect of the present invention utilizes co-immunoprecipitation studies. Subconfluent cultures of a HEK293 cell line ectopically expressing the FLAG-tagged membrane-spanning form of murine Klotho were transfected with expression vectors for V5-tagged FGFR1c, FGFR3c, or FGFR4. Two days later, the cells were lysed, and FGFR-Klotho complexes were isolated from cell lysate using anti-V5 agarose beads. The beads were then incubated with either FGF23¹⁸⁰⁻²⁵¹ or FGF23²⁸⁻²⁵¹ alone, or with mixtures of FGF23²⁸⁻²⁵¹ with either increasing FGF23¹⁸⁰⁻²⁵¹ or increasing FGF23¹⁸⁰⁻²⁰⁵. Bead-bound proteins were resolved on SDS-polyacrylamide gels, transferred to nitrocellulose membranes, and labeled using antibodies to Klotho, FGF23, and V5 epitope tag.

[2] = molecular target: T2, complex of V5-tagged FGFR1c and FLAG-tagged membrane-spanning murine Klotho isolated from transfected … (murine, UniProt O35082 35-1014); experiment: co-immunoprecipitation competition; competitor FGF23^28-251
T2 construct: Isolated from cell lysate on anti-V5 agarose beads; also called FGFR1c-Klotho complex (co-immunoprecipitated); binary FGFR-Klotho complex; not shown: FGFR1c, V5-tagged, expressed from a vector in HEK293-Klotho cells
T2 sequence (O35082 35-1014, one chain of several): as above
Excerpt: as §1

[3] = molecular target: T3, complex of V5-tagged FGFR4 and FLAG-tagged membrane-spanning murine Klotho isolated from transfected … (murine, UniProt O35082 35-1014); experiment: as above
T3 construct: Isolated from cell lysate on anti-V5 agarose beads; also called FGFR4-Klotho complex; binary FGFR-Klotho complex; not shown: FGFR4, V5-tagged, expressed from a vector in HEK293-Klotho cells
T3 sequence (O35082 35-1014, one chain of several): as above
Excerpt: as §1

[4] = molecular target: T1, complex of V5-tagged FGFR3c and …; experiment: as above
Excerpt: as §1

B1: N-terminally hexahistidine-tagged 72-amino acid C-terminal tail of human FGF23 (S180 to I251), FGF23^180-251 (peptide)
peptide: SAEDDSERDPLNVLKPRARMTPAPASCSQELPSAEDNSPMASDPLGVVRGGRVNTHAGGTGPEGCRPFAKFI
notes: Expressed in E. coli; also called FGF23 C-terminal tail peptide; C-terminal tail of FGF23; not shown: N-terminal hexahistidine tag (six His)
[1]
  molar excess over FGF23^28-251 that completely blocked its binding: 76 fold molar excess

B2: FGF23 C-terminal region peptide (S180 to S205), FGF23^180-205 (peptide)
peptide: SAEDDSERDPLNVLKPRARMTPAPAS
notes: Made by solid phase synthesis (GenScript)
[2]
  fold reduced potency compared to the FGF23^180-251 peptide: 100 fold
[3]
  fold reduced potency compared to the FGF23^180-251 peptide: > 100 fold
[4]
  fold reduced potency compared to the FGF23^180-251 peptide: > 100 fold
